In PMC9163516, “Convergent evolution of a parasite-encoded complement control protein-scaffold to mimic binding of mammalian TGF-β to its receptors, TβRI and TβRII” (The Journal of Biological Chemistry, 2022):

B1: biotinylated avi-tagged TGM-D3 (domain or fragment)
chain: GSGTGCPPLPDDGIVFYEYYGYAGDRHTVGPVVTKDSSGNYPSPTHARRRCRALSQEADPGEFVAICYKSGTTGESHWEYYKNIGKCPDP
modifications: a single biotin on the avi tag (BirA)
notes: also called TGM-D3 (SPR surface); not shown: Thioredoxin, N-terminal, cleaved; His6, N-terminal, cleaved
B2: TGM-D3 (domain or fragment)
chain: GSGTGCPPLPDDGIVFYEYYGYAGDRHTVGPVVTKDSSGNYPSPTHARRRCRALSQEADPGEFVAICYKSGTTGESHWEYYKNIGKCPDP
notes: also called WT TGM-D3; domain 3 of H. polygyrus TGF-β mimic; not shown: Thioredoxin, N-terminal, cleaved; His6, N-terminal, cleaved
B3: TGM-D3 F235A (domain or fragment)
chain: GSGTGCPPLPDDGIVFYEYYGYAGDRHTVGPVVTKDSSGNYPSPTHARRRCRALSQEADPGEAVAICYKSGTTGESHWEYYKNIGKCPDP
notes: also called Phe235Ala; not shown: Thioredoxin, N-terminal, cleaved; His6, N-terminal, cleaved
B4: TGM-D3 H199A (domain or fragment)
chain: GSGTGCPPLPDDGIVFYEYYGYAGDRATVGPVVTKDSSGNYPSPTHARRRCRALSQEADPGEFVAICYKSGTTGESHWEYYKNIGKCPDP
notes: also called His199Ala; not shown: Thioredoxin, N-terminal, cleaved; His6, N-terminal, cleaved
B5: TGM-D3 I238A (domain or fragment)
chain: GSGTGCPPLPDDGIVFYEYYGYAGDRHTVGPVVTKDSSGNYPSPTHARRRCRALSQEADPGEFVAACYKSGTTGESHWEYYKNIGKCPDP
notes: not shown: Thioredoxin, N-terminal, cleaved; His6, N-terminal, cleaved
B6: TGM-D3 I256A (domain or fragment)
chain: GSGTGCPPLPDDGIVFYEYYGYAGDRHTVGPVVTKDSSGNYPSPTHARRRCRALSQEADPGEFVAICYKSGTTGESHWEYYKNAGKCPDP
notes: also called Ile256Ala; not shown: Thioredoxin, N-terminal, cleaved; His6, N-terminal, cleaved
B7: TGM-D3 K254A (domain or fragment)
chain: GSGTGCPPLPDDGIVFYEYYGYAGDRHTVGPVVTKDSSGNYPSPTHARRRCRALSQEADPGEFVAICYKSGTTGESHWEYYANIGKCPDP
notes: also called Lys254Ala; not shown: Thioredoxin, N-terminal, cleaved; His6, N-terminal, cleaved
B8: TGM-D3 K258A (domain or fragment)
chain: GSGTGCPPLPDDGIVFYEYYGYAGDRHTVGPVVTKDSSGNYPSPTHARRRCRALSQEADPGEFVAICYKSGTTGESHWEYYKNIGACPDP
notes: also called Lys258Ala; not shown: Thioredoxin, N-terminal, cleaved; His6, N-terminal, cleaved
B9: TGM-D3 N255A (domain or fragment)
chain: GSGTGCPPLPDDGIVFYEYYGYAGDRHTVGPVVTKDSSGNYPSPTHARRRCRALSQEADPGEFVAICYKSGTTGESHWEYYKAIGKCPDP
notes: also called Asn255Ala; not shown: Thioredoxin, N-terminal, cleaved; His6, N-terminal, cleaved
B10: TGM-D3 V236A (domain or fragment)
chain: GSGTGCPPLPDDGIVFYEYYGYAGDRHTVGPVVTKDSSGNYPSPTHARRRCRALSQEADPGEFAAICYKSGTTGESHWEYYKNIGKCPDP
notes: also called Val236Ala; not shown: Thioredoxin, N-terminal, cleaved; His6, N-terminal, cleaved
B11: TGM-D3 Y252A (domain or fragment)
chain: GSGTGCPPLPDDGIVFYEYYGYAGDRHTVGPVVTKDSSGNYPSPTHARRRCRALSQEADPGEFVAICYKSGTTGESHWEAYKNIGKCPDP
notes: as for B5
B12: TGM-D12 (domain or fragment)
chain: DDSGCMPFSDEAATYKYVAKGPKNIEIPAQIDNSGMYPDYTHVKRFCKGLHGEDTTGWFVGICLASQWYYYEGVQECDDRRCSPLPTNDTVSFEYLKATVNPGIIFNITVHPDASGKYPELTYIKRICKNFPTDSNVQGHIIGMCYNAEWQFSSTPTCPAS
modifications: refolded from E. coli, disulfide-bonded; start from the listed D1 range (16-95), end set just before D3 (Cys178 is the first D3 cysteine; 7SXB places D3 at about 177-262); vector residues left after …
B13: TGM-D2 (domain or fragment)
chain: RCSPLPTNDTVSFEYLKATVNPGIIFNITVHPDASGKYPELTYIKRICKNFPTDSNVQGHIIGMCYNAEWQFSSTPTCPAS
modifications: refolded from E. coli, disulfide-bonded; limits set between D1 (ends at 95) and D3 (starts at about 177); vector residues left after thrombin cleavage omitted
B14: TβRI ectodomain (receptor)
chain: LQCFCHLCTKDNFTCVTDGLCFVSVTETTDKVIHNSMCIAEIDLIPRDRPFVCAPSSKTGSVTTTYCCNQDHCNKIELPTTVKSSPGLGPVEL
notes: also called TGF-β type I receptor

How the values were obtained:
Details in all cases: both partners purified
TβRII D55N = biological target: T1, TβRII D55N (UniProt P37173 23-166, D55N); test: SPR; biotinylated avi-tagged TGM-D3 captured (50-150 RU) on a neutravidin-coated CM-5 chip, TβRII and its variants injected; 25 mM Hepes, pH 7.4, 150 mM NaCl, 0.05% surfactant P20, 100 µl/min; 1:1 kinetic fit of duplicate or triplicate injection series
T1 construct: also called Asp55Asn

TβRII I76A = biological target: T2, TβRII I76A (UniProt P37173 23-166, I76A); test: as above
T2 construct: also called Ile76Ala

TβRII I73A = biological target: T3, TβRII I73A (UniProt P37173 23-166, I73A); test: as above
T3 construct: also called Ile73Ala

TβRII S75L = biological target: T4, TβRII S75L (UniProt P37173 23-166, S75L); test: as above
T4 construct: also called Ser75Leu

TβRII ectodomain [1] = biological target: T5, TβRII ectodomain (UniProt P37173 23-166); test: as above
T5 construct: also called WT TβRII; TGF-β type II receptor

TβRII E142Q = biological target: T6, TβRII E142Q (UniProt P37173 23-166, E142Q); test: as above
T6 construct: also called Glu142Gln

[2] = biological target: T7, biotinylated avi-tagged TβRII (UniProt P37173 23-166, a single biotin on the avi tag (BirA)); test: SPR; biotinylated avi-tagged TβRII captured (50-150 RU) on a neutravidin-coated CM-5 chip, TGM-D3 and its variants injected; 25 mM Hepes, pH 7.4, 150 mM NaCl, 0.05% surfactant P20, 100 µl/min; 1:1 kinetic fit of duplicate or triplicate injection series
T7 construct: also called TβRII (SPR surface)

TβRII ectodomain [3] = biological target: T5, TβRII ectodomain; test: ITC; TGM construct in the syringe (300-320 µM), 15 µM TβRII in the cell; 25 mM sodium phosphate, 50 mM NaCl, pH 6.0, 35 °C; 1:1 model (Nitpic, Sedphat)
TβRI ectodomain = biological target: B14; test: ITC; TGM construct titrated into TβRI in the cell; 25 mM Hepes, 50 mM NaCl, 0.05% NaN3, pH 7.5, 25 °C; 1:1 model
TGM-D2 = biological target: B13; test: NMR titration; 1H-15N HSQC of 15N TGM-D2 or 15N TGM-D3 with 0 to 1.4 equivalents of unlabeled TβRI; 25 mM sodium phosphate, 50 mM NaCl, pH 7.0, 310 K (legend of Figure 3)

T7 sequence (P37173 23-166): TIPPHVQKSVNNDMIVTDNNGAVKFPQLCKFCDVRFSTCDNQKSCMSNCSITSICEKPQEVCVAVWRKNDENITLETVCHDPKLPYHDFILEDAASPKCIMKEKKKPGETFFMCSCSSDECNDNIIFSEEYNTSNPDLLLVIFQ
T5 sequence (P37173 23-166): as above
T6 sequence (P37173 23-166 E142Q): as the sequence (P37173 23-166) above, with E120Q counted along it
T2 sequence (P37173 23-166 I76A): as the sequence (P37173 23-166) above, with I54A counted along it
T4 sequence (P37173 23-166 S75L): as the sequence (P37173 23-166) above, with S53L counted along it
T1 sequence (P37173 23-166 D55N): as the sequence (P37173 23-166) above, with D33N counted along it
T3 sequence (P37173 23-166 I73A): as the sequence (P37173 23-166) above, with I51A counted along it

| Binder | Kd [2] [µM] | koff [2] [s⁻¹] | kon [2] [M⁻¹ s⁻¹] | other results |
| --- | --- | --- | --- | --- |
| B1 | – | – | – | Kd (TβRII D55N): 63 ± 1 µM; koff (TβRII D55N): 3.1 ± 0.1 s⁻¹; kon (TβRII D55N): 50000 M⁻¹ s⁻¹; Kd (TβRII I76A): 26 ± 1 µM; koff (TβRII I76A): 1.2 ± 0.1 s⁻¹; kon (TβRII I76A): 47000 M⁻¹ s⁻¹; Kd (TβRII I73A): 6.9 ± 0.1 µM; koff (TβRII I73A): 1.1 ± 0.1 s⁻¹; kon (TβRII I73A): 160000 M⁻¹ s⁻¹; Kd (TβRII S75L): 310 ± 30 µM; koff (TβRII S75L): 3.9 ± 0.9 s⁻¹; kon (TβRII S75L): 13000 M⁻¹ s⁻¹; Kd (TβRII ectodomain [1]): 1.6 ± 0.1 µM; koff (TβRII ectodomain [1]): 0.7 ± 0.1 s⁻¹; kon (TβRII ectodomain [1]): 410000 M⁻¹ s⁻¹; Kd (TβRII E142Q): 17 ± 1 µM; koff (TβRII E142Q): 10 ± 10 s⁻¹; kon (TβRII E142Q): 410000 M⁻¹ s⁻¹ |
| B2 | 1.6 ± 0.1 | 0.26 ± 0.01 | 160000 | Kd (TβRII ectodomain [3]): 1.2 µM; stoichiometry N (TβRII ectodomain [3]): 1.1 |
| B3 | 4.1 ± 0.1 | 1.8 ± 0.2 | 450000 | – |
| B4 | 3 ± 0.1 | 0.98 ± 0.01 | 330000 | – |
| B5 | 25 ± 1 | 2.3 ± 0.1 | 94000 | – |
| B6 | 1.6 ± 0.1 | 1.4 ± 0.1 | 880000 | – |
| B7 | 35 ± 1 | 12 ± 6 | 300000 | – |
| B8 | 2.7 ± 0.1 | 1.2 ± 0.1 | 430000 | – |
| B9 | 2.7 ± 0.1 | 1.3 ± 0.1 | 480000 | – |
| B10 | 4.6 ± 0.1 | 1.8 ± 0.1 | 380000 | – |
| B11 | 21 ± 1 | 1.7 ± 0.1 | 78000 | – |
| B12 | – | – | – | Kd (TβRI ectodomain): 0.025 µM; dH (TβRI ectodomain): -19 kcal/mol; stoichiometry N (TβRI ectodomain): ~1 |
| B13 | – | – | – | fold increase of KD against TGM-FL (TβRI ectodomain): ~50 fold; stoichiometry N (TβRI ectodomain): ~0.5 |
| B14 | – | – | – | stoichiometry N (TGM-D2): 1 |
